Measurements: US20200054763A1 (DEBIOPHARM INTERNATIONAL S A, published 2020)

Target: T1, human CD37 (human, UniProt P11049 1-281)
T1 sequence: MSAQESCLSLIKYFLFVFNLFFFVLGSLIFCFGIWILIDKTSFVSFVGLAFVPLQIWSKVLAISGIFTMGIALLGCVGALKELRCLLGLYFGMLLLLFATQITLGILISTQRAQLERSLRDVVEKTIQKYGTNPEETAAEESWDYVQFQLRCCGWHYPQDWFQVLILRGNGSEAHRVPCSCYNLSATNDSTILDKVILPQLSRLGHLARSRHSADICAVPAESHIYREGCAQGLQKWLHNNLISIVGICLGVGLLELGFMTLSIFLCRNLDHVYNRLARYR
Experiment: cell-based or functional assay

B1: IMGN529 (naratuximab emtansine) (antibody, V domains shown)
VH: QVQVQESGPGLVAPSQTLSITCTVSGFSLTTSGVSWVRQPPGKGLEWLGVIWGDGSTNYHPSLKSRLSIKKDHSKSQVFLKLNSLTAADTATYYCAKGGYSLAHWGQGTLVTVSS
VL: DIQMTQSPSSLSVSVGERVTITCRASENIRSNLAWYQQKPGKSPKLLVNVATNLADGVPSRFSGSGSGTDYSLKINSLQPEDFGTYYCQHYWGTTWTFGQGTKLEIKR
modifications: maytansinoid DM1 linked through the SMCC linker; attachment residues and chain not stated
median IC50, cell proliferation (MTT assay, 72 hours), B cell lymphoma cell lines (n=46): 0.45 nM | median IC50, cell proliferation (MTT assay, 72 hours), T cell lymphoma cell lines (n=8): 22.5 nM | median IC50, cell proliferation (MTT assay, 72 hours), fifty-four lymphoma cell lines: 0.79 nM
